The text below walks through data of patent US20140325692, “BLUE-LIGHT INDUCIBLE SYSTEM FOR GENE EXPRESSION” (BOARD OF REGENTS, THE UNIVERSITY OF TEXAS SYSTEM, published 2014).

What all share (conditions): tags: His6-Gβ1 (pHis6-Gβ1-Parallel1); label: 5'-32P
Series [1] has as its target T1, EL222 (14-222) wild type (Erythrobacter litoralis, UniProt Q2NB98 SEQ:1-209).
T1 chain: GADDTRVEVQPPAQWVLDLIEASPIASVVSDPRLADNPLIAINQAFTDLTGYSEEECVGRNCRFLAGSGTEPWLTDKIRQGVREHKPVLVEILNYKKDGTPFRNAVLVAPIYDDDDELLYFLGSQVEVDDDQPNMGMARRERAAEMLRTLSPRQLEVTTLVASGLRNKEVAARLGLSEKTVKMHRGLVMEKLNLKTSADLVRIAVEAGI
In words: EMSA; light, 4 C, 3 mM MgCl2; 33 bp randomized region printed. Here is the method:
(§1) DNA pools derived from each SELEX cycle were PCR amplified as described previously in the SELEX procedure. Complementary oligonucleotides for each individual SELEX-derived clone sequence were chemically synthesized (Sigma), heated to 95-100° C. for 5 min and left to cool to room temperature to anneal the oligonucleotides. DNAs were 5′-end labeled in a 50 μl reaction containing (final concentrations) 68 nM DNA substrate, 70 mM Tris-Cl pH 7.6, 10 mM MgCl₂, 5 mM DTT, 0.6 μCi ATP [γ-³²P] (Perkin Elmer, cat. no. BLU502Z500UC), and 0.2 U PNK (New England Biolabs Inc.). The reaction was incubated for 30 min at 37° C., followed by a 20 min incubation at 65° C. to heat inactivate the enzyme. The ³²P-labeled DNA was purified from the unincorporated ATP [γ-³²P] using Illustra ProbeQuant G-50 micro-columns (GE Healthcare). Approximately 13.6 nM radiolabeled DNA was incubated with varying concentrations of WT-EL222 in the same binding buffer used for SELEX procedure for 25 min at 4° C. with continuous illumination with a white LED light. Reactions were analyzed on a 5% native gel (Acrylamide/Bis 29:1) and run in TBE buffer at 150 V for 1.5 hr at 4° C. The gel was exposed to a PhosphorImaging plate and visualized using FujiFilm FLA-5100 imaging system.
Background: Mobility shift assays separate free from complexed probe on a gel.

Series [2] has as its target T1, EL222 (14-222) wild type. Put plainly: EMSA; light, 4 C, 3 mM MgCl2. Here is the method: as §1
Series [3] addresses T1, EL222 (14-222) wild type. In words: EMSA; white LED light, 4 C, 10 mM Tris pH 8.0, 80 mM NaCl, 3 mM MgCl2. The protocol: as §1

B1: Clone-78 (dsDNA)
DNA 1: GCCCTAAGACTGTATCTTATTCGTGAGTTTTAA
DNA 2: TTAAAACTCACGAATAAGATACAGTCTTAGGGC
On to B1, for which the binding result with EL222 (14-222) wild type [1] was “binds”.

B2: Clone-22 (dsDNA)
DNA 1: TATAGGGCTTTAGTCTGTATGTGGGATGTGTGT
DNA 2: ACACACATCCCACATACAGACTAAAGCCCTATA
With B2, the binding result with EL222 (14-222) wild type [1] is given as “binds”.

B3: Clone-3 (dsDNA)
DNA 1: TAGACTTAAGTCTAGTACACAAGTTTTCCAGGG
DNA 2: CCCTGGAAAACTTGTGTACTAGACTTAAGTCTA
For B3, the binding result with EL222 (14-222) wild type [1] was “binds”.

B4: Clone-2 (dsDNA)
DNA 1: AGCTAGGCTTTTGGTCTGTATAGCTGTCTTATA
DNA 2: TATAAGACAGCTATACAGACCAAAAGCCTAGCT
For the molecule B4, in the series with EL222 (14-222) wild type [1], the binding result was “binds”.

B5: C1-2 (dsDNA)
DNA 1: TAGGTAGCCTTTAGTCCATG
DNA 2: CATGGACTAAAGGCTACCTA
Turning to B5, in the series with EL222 (14-222) wild type [2], the binding result is “binds”.

B6: Clone-1 (dsDNA)
DNA 1: TCTACGTTATAGGTAGCCTTTAGTCCATGCTGATTCGTTTTCAAC
DNA 2: GTTGAAAACGAATCAGCATGGACTAAAGGCTACCTATAACGTAGA
Consider B6, for which the binding result in the series with EL222 (14-222) wild type [3] is “binds”.

B7: Clone-77 (dsDNA)
DNA 1: CAGATACATGCTTTAGTACGTATATTCGATGTC
DNA 2: GACATCGAATATACGTACTAAAGCATGTATCTG
B7: the binding result with EL222 (14-222) wild type [1] was “binds”.

B8: Clone-53 (dsDNA)
DNA 1: CATGGCCTAAGGACTGTAAGTACTATTAAATAC
DNA 2: GTATTTAATAGTACTTACAGTCCTTAGGCCATG
Turning to B8, the binding result with EL222 (14-222) wild type [1] was “binds”.
